Holding throughout (experiment): resonant mirror detection (IAsys)
The target in one assay is CaM (Homo sapiens, UniProt P0DP23).
Assay [1] addresses T1, band 3cyt cytoplasmic domain (Homo sapiens, UniProt P02730).
T1 chain: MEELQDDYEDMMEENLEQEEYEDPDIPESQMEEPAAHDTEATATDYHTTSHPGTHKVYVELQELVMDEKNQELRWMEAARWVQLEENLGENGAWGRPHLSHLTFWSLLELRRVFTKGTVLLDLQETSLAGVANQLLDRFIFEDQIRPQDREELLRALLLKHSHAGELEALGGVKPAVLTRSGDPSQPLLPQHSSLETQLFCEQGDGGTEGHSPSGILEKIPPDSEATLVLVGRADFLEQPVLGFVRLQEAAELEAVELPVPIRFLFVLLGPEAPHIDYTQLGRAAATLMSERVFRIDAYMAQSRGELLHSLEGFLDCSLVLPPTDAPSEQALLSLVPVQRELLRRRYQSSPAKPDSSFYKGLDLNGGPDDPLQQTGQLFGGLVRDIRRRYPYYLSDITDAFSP

The target of assay [2] is T2, GPCcyt cytoplasmic domain (Homo sapiens, UniProt P04921).
T2 chain: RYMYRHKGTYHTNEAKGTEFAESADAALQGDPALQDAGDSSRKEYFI

The term Kd denotes the concentration at which binding is half-saturated. High values mean a looser complex, low ones a tighter complex.

B1: 4.1R135 (protein)
chain: MTTEKSLVTEAENSQHQQKEEGEEAINSGQQEPQQEESCQTAAEGDNWCEQKLKASNGDTPTHEDLTKNKERTSESRGLSRLFSSFLKRPKSQVSEEEGKEVESDKEKGEGGQKEIEFGTSLDEEIILKAPIAAPEPELKTDPSLDLHSLSSAETQPAQEELREDPDFEIKEGEGLEECSKIEVKEESPQSKAETELKASQKPIRKHRNMHCKVSLLDDTVYECVVEKHAKGQDLLKRVCEHLNLLEEDYFGLAIWDNATSKTWLDSAKEIKKQVRGVPWNFTFNVKFYPPDPAQLTEDITRYYLCLQLRQDIVAGRLPCSFATLALLGSYTIQSELGDYDPELHGVDYVSDFKLAPNQTKELEEKVMELHKSYRSMTPAQADLEFLENAKKLSMYGVDLHKAKDLEGVDIILGVCSSGLLVYKDKLRINRFPWPKVLKISYKRSSFFIKIRPGEQEQYESTIGFKLPSYRAAKKLWKVCVEHHTFFRLTSTDTIPKSKFLALGSKFRYSGRTQAQTRQASALIDRPAPHFERTASKRASRSLDGAAAVDSADRSPRPTSAPAITQGQVAEGGVLDASAKKTVVPKAQKETVKAEVKKEDEPPEQAEPEPTEAWKVEKTHIEVTVPTSNGDQTQKLAEKTEDLIRMRKKKRERLDGENIYIRHSNLMLEDLDKSQEEIKKHHASISELKKNFMESVPEPRPSEWDKRLSTHSPFRTLNINGQIPTGEGPPLVKTQTVTISDNANAVKSEIPTKDVPIVHTETKTITYEAAQTDDNSGDLDPGVLLTAQTITSETPSSTTTTQITKTVKGGISETRIEKRIVITGDADIDHDQVLVQAIKEAKEQHPDMSVTKVVVHQETEIADE
modifications: EGTA (no Ca2+)
B1: in the assay with CaM, the Kd was 11.7 µM.

B2: 4.1R135 (protein)
chain: MTTEKSLVTEAENSQHQQKEEGEEAINSGQQEPQQEESCQTAAEGDNWCEQKLKASNGDTPTHEDLTKNKERTSESRGLSRLFSSFLKRPKSQVSEEEGKEVESDKEKGEGGQKEIEFGTSLDEEIILKAPIAAPEPELKTDPSLDLHSLSSAETQPAQEELREDPDFEIKEGEGLEECSKIEVKEESPQSKAETELKASQKPIRKHRNMHCKVSLLDDTVYECVVEKHAKGQDLLKRVCEHLNLLEEDYFGLAIWDNATSKTWLDSAKEIKKQVRGVPWNFTFNVKFYPPDPAQLTEDITRYYLCLQLRQDIVAGRLPCSFATLALLGSYTIQSELGDYDPELHGVDYVSDFKLAPNQTKELEEKVMELHKSYRSMTPAQADLEFLENAKKLSMYGVDLHKAKDLEGVDIILGVCSSGLLVYKDKLRINRFPWPKVLKISYKRSSFFIKIRPGEQEQYESTIGFKLPSYRAAKKLWKVCVEHHTFFRLTSTDTIPKSKFLALGSKFRYSGRTQAQTRQASALIDRPAPHFERTASKRASRSLDGAAAVDSADRSPRPTSAPAITQGQVAEGGVLDASAKKTVVPKAQKETVKAEVKKEDEPPEQAEPEPTEAWKVEKTHIEVTVPTSNGDQTQKLAEKTEDLIRMRKKKRERLDGENIYIRHSNLMLEDLDKSQEEIKKHHASISELKKNFMESVPEPRPSEWDKRLSTHSPFRTLNINGQIPTGEGPPLVKTQTVTISDNANAVKSEIPTKDVPIVHTETKTITYEAAQTDDNSGDLDPGVLLTAQTITSETPSSTTTTQITKTVKGGISETRIEKRIVITGDADIDHDQVLVQAIKEAKEQHPDMSVTKVVVHQETEIADE
In the case of B2, the Kd worked out at 23 nM in assay [1] and 1330 nM in assay [2].

B3: 4.1R135 (protein)
chain: MTTEKSLVTEAENSQHQQKEEGEEAINSGQQEPQQEESCQTAAEGDNWCEQKLKASNGDTPTHEDLTKNKERTSESRGLSRLFSSFLKRPKSQVSEEEGKEVESDKEKGEGGQKEIEFGTSLDEEIILKAPIAAPEPELKTDPSLDLHSLSSAETQPAQEELREDPDFEIKEGEGLEECSKIEVKEESPQSKAETELKASQKPIRKHRNMHCKVSLLDDTVYECVVEKHAKGQDLLKRVCEHLNLLEEDYFGLAIWDNATSKTWLDSAKEIKKQVRGVPWNFTFNVKFYPPDPAQLTEDITRYYLCLQLRQDIVAGRLPCSFATLALLGSYTIQSELGDYDPELHGVDYVSDFKLAPNQTKELEEKVMELHKSYRSMTPAQADLEFLENAKKLSMYGVDLHKAKDLEGVDIILGVCSSGLLVYKDKLRINRFPWPKVLKISYKRSSFFIKIRPGEQEQYESTIGFKLPSYRAAKKLWKVCVEHHTFFRLTSTDTIPKSKFLALGSKFRYSGRTQAQTRQASALIDRPAPHFERTASKRASRSLDGAAAVDSADRSPRPTSAPAITQGQVAEGGVLDASAKKTVVPKAQKETVKAEVKKEDEPPEQAEPEPTEAWKVEKTHIEVTVPTSNGDQTQKLAEKTEDLIRMRKKKRERLDGENIYIRHSNLMLEDLDKSQEEIKKHHASISELKKNFMESVPEPRPSEWDKRLSTHSPFRTLNINGQIPTGEGPPLVKTQTVTISDNANAVKSEIPTKDVPIVHTETKTITYEAAQTDDNSGDLDPGVLLTAQTITSETPSSTTTTQITKTVKGGISETRIEKRIVITGDADIDHDQVLVQAIKEAKEQHPDMSVTKVVVHQETEIADE
modifications: Ca2+
For B3, the Kd in the assay with CaM came out at 0.078 µM.

These data come from publication PMC3166722 (2011).
